± gives the uncertainty stated by the source.

For 135 substances, amyloid nucleation score results are on record in the supplement of paper PMC12042874.

The nature of the data set: amyloid nucleation score (Sup35N fusion, yeast selection) (log enrichment); library NNK3; higher = more nucleation; inactive = no reads after selection. The method, boiled down: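 Random libraries were run with three technical output replicates. In each, psi-negative yeast expressing Sup35N fused to peptides of 20 random codons were induced 24 hours with 100 μM copper sulfate and grown 7 days at 30°C on medium lacking adenine and uracil, and input and output plasmid inserts were Illumina-sequenced. The nucleation score is the DiMSum log enrichment of output over input reads, centred on the mode score of non-aggregating sequences, and sequences under 100 input reads were excluded.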
As for GSYRWAVGGKDWGHWDRCLA, the amyloid nucleation score result was “inactive”.
Take GIIHDVMDTTNGKIVSS: the amyloid nucleation score result is “inactive”.
The result for VHVLVVWYFAFTCVCRVPFG reads 0.228 ± 0.85.
Under PWDSLW stands 0.894 ± 0.12; under FGSVVGRCSTSFVYRLINIR, 0.65 ± 0.17.
Under VEPDRERKENVC stands “inactive”.
IFHLKIAYFPNYGRITLYYL came in with an amyloid nucleation score of 1.65 ± 0.091.
The result for FFCMWDRMIALWSHFCNLDG reads “inactive”; that for GADMKTRRSARGLMWTMGSS, “inactive”.
The result for LNHGVCIFYDQFANLELPPR reads 2.09 ± 0.067; that for YGQGSGGIGRRVAGQDCNLI, “inactive”; that for CEFRIFNWSFCSKRVGLRYV, “inactive”.
Under ISHVEYLVLEPSMVYF stands -0.349 ± 0.59; under ILSILMCLQETNTDYNSMNR, “inactive”.
As for SGLWHRILCSGRPTGYTQWV, the amyloid nucleation score result is “inactive”.
The result for VLHGVL reads “inactive”; that for NSFDSMGSMFANRYRLNFPR, “inactive”; that for VYFHSGSARFNTGTQL, “inactive”.
Under PSYFEYFVRIGFFG stands “inactive”; under RLWYGTYWFT, “inactive”; under HHLTFTGGWYPDWHSLFMGG, “inactive”.
Under CANNYGGMLRECQVSGYSCM stands “inactive”; under QDFYSACSNIVNST, “inactive”.
RFEFDQVFMF came in with an amyloid nucleation score of 1.32 ± 0.13.
The result for QGYMFFCHYIDICS reads “inactive”.
As for LDLLHFGYFIYFDEL, the amyloid nucleation score result was “inactive”.
Under GSCKVADAPCSHARR stands -0.331 ± 1.3.
NFPNPVVSNLRAYFMD came in with an amyloid nucleation score of -0.371 ± 0.96.
On to SSMICVQFGM, for which the amyloid nucleation score entry was “inactive”.
The result for LTDSY reads “inactive”; that for KINGIDSSGMCAISLIKKGA, “inactive”; that for VVASDNSTMVENWSFNGKMS, “inactive”.
As to GCLECL, the amyloid nucleation score entry is “inactive”.
On to FTLKRLPGYSHRSLEWLPPY, for which the amyloid nucleation score entry was “inactive”.
The result for SFNFSPCVYTCVRMCIWGYF reads “inactive”; that for TYKIIRYFLNLICSFRGPMP, “inactive”; that for NTIGNNVKYETRCNQSV, “inactive”.
Take SGDLMEGGEYF: the amyloid nucleation score result was “inactive”.
Under WSIRMW stands “inactive”; under DGRAWRALRGPK, “inactive”; under VIHMH, “inactive”.
As to HAKADL, the amyloid nucleation score result was “inactive”.
As for MPSLRRS, the amyloid nucleation score result is “inactive”.
Under YSALNSYSWYVTPFYILYWF stands 2.56 ± 0.084.
Under FVGSLDFNGVSEGFVASHCI stands “inactive”; under LRWYPVDMI, “inactive”.
Under TNPMYK stands “inactive”.
For the substance ICYIPY, the amyloid nucleation score entry is “inactive”.
The result for YVLNKGFWGGNTLQSWRVSD reads “inactive”.
The result for SVESACFTSSWVNHFFTFSN reads “inactive”.
As for KVARIVPRFKRQDYTALILD, the amyloid nucleation score entry is “inactive”.
The result for ASTSD reads “inactive”.
VARGNMCNL: the amyloid nucleation score result is “inactive”.
The result for SWQNWGRGGCSGLFVSRWVT reads “inactive”; that for HILHLRLDYFLGA, 0.401 ± 0.3.
The result for IRMYSIWREDVSRRKARCMW reads “inactive”; that for TEGAYRSW, “inactive”; that for SKKSDF, “inactive”.
Under SVNFSYASAIPHAQMIQVRV stands “inactive”; under SKGICNFMCVL, 3.37 ± 0.077.
In turn, PGDVRLGDIVLIFFLRM returned an amyloid nucleation score of 0.781 ± 0.26.
Under FDIYLCDMYSLIFVCTGRLP stands -0.544 ± 0.66.
The result for PGITNLWLEMSHV reads “inactive”.
Under PFIGVSMLSMG stands -0.47 ± 0.87.
In turn, SLIFFL showed an amyloid nucleation score of 1.35 ± 0.12.
The result for ETYHCIV reads “inactive”.
Under NAMCR stands “inactive”; under IFVVSNFISSSMNYRSYCYL, “inactive”.
Under VMGVPST stands “inactive”.
Turning to QMLLDRRGKSTAATRVAPTD, the amyloid nucleation score entry is “inactive”.
Under MIFNVDGLDLVPDKVRYYRD stands “inactive”; under LWVAVYMFGTCWMRDEVDDV, “inactive”.
Under TVRFLVHYITAKGKSVGITK stands “inactive”; under GGLTSYDQ, “inactive”; under VRACNRLVYRFGDTVISDKR, “inactive”.
Under WLARTRRVVLRNLVLAVTCI stands “inactive”; under MSCLG, “inactive”; under LLNPCKRSCVNLRMHTQPSS, “inactive”.
Take YQVVVGNFCLLHSVCI: the amyloid nucleation score stood at 0.124 ± 0.38.
The result for DMVSRSSCSDL reads “inactive”.
The result for SMGSPVNVIWTSSYS reads “inactive”; that for HDKAVQEVGQGCGE, 1.34 ± 0.11; that for CFFEVKRSHSIRVFRIGCGV, “inactive”.
The result for DADTW reads “inactive”.
On to EFQGQTKSSWAYRLDKLCLP, for which the amyloid nucleation score result is “inactive”.
For CANANVP, the amyloid nucleation score result is “inactive”.
Under NMYVNTSCIVYFE stands 3 ± 0.058; under AGEKPNSIFYSTHSSRSFSN, 0.965 ± 0.17; under KVGFLFDGLFIFGGR, “inactive”.
The result for IICGSCPRR reads “inactive”; that for PQASVDQFLYFPIWTYLGIN, “inactive”.
The result for SYMQAWVTNCMSVFSVVMKQ reads “inactive”; that for HSYHPMPWTVNLGCHFGGYC, 2.38 ± 0.068.
Consider LNKVIRCEAYRCKTMN, for which the amyloid nucleation score entry was “inactive”.
The result for LGPMAGRVSRYCNAARLTRC reads -0.999 ± 2.4; that for CPTCESGKERGVKYVKFLNW, “inactive”.
Under VKRGFEWFCSMTHFNTSCIR stands “inactive”; under QVLRSYHYGCYSGCGALHMR, “inactive”; under VGAFLKLNRNLMTFSMARNY, “inactive”.
The result for YVLRLASCSFTPVSEVHLSW reads “inactive”.
As to TFLYTFWVLMACSELV, the amyloid nucleation score entry was “inactive”.
Under CTYDSLRILAYRANQTNWFQ stands -0.278 ± 0.47.
Under KVCHSWVWHILGSLDYITRG stands “inactive”.
The result for IGGEYGFLSCYSIGVTTFYV reads “inactive”; that for VFCVRRSLQNLRNSGNDSHR, “inactive”.
Turning to RYLDQLI, the amyloid nucleation score entry was “inactive”.
For MINSCFK, the amyloid nucleation score result was “inactive”.
Under SEKYATSKYCQVTFGVTLPS stands “inactive”.
In the case of CYSCSMLFISWLCRYRSTQY, the amyloid nucleation score amounted to 1.02 ± 0.12.
The result for IRRFIKNIVYTYGHLLLEAH reads “inactive”.
Under STWTWMPHKERHITLSKEFW stands “inactive”; under MLSYYRFWCPVGRVVMMSFW, “inactive”; under RLWLYR, “inactive”.
The result for VTLQLPDCFGRACIGLAYIA reads “inactive”.
On to SMQVQMTWLCDRSSLGQRNQ, for which the amyloid nucleation score came to 1.6 ± 0.11.
Under EMCINSVMMDATMSKH stands “inactive”; under AHDRIFWNGPYNRISYAAFR, “inactive”.
The result for RQQRLRRKPLFWDNQAKANY reads 0.211 ± 0.24; that for LSKHS, “inactive”; that for MHSTVVEHLLWLTFTPGYKL, “inactive”.
As to FNRGKRCNSIRSLVPCNSPL, the amyloid nucleation score result is “inactive”.
The result for NGILKPETVRQI reads “inactive”; that for LYIIFERD, “inactive”; that for SWCWYMCSGLNIEIAKGLTR, “inactive”.
Under KNLGIG stands “inactive”.
Consider YEIFSVSLR, for which the amyloid nucleation score was -0.221 ± 0.9.
Under CRYSSYVPVGLYKKWGICWM stands “inactive”.
In the case of SFNHFQCLFISPLTRCARGV, the amyloid nucleation score is 1.51 ± 0.13.
Under FRSWPS stands “inactive”; under LAYVHMGGIARWLC, “inactive”.
The result for HFFNPCQGHRNKVPRRAS reads “inactive”; that for WNMNYVQFDGNVLVNAD, “inactive”; that for CSVLC, “inactive”.
Turning to VGTGICKRPGYRAGSV, the amyloid nucleation score entry was “inactive”.
The result for KSWVIKLSGFVETWHRMD reads “inactive”.
